Source: PMC5771398, “Structural basis for assembly of the CBF3 kinetochore complex” (The EMBO Journal, 2017)

Biological target: T1, Cep3-Ctf13-Skp1 core complex (S. cerevisiae, UniProt P40969 1-608; P35203 1-478; P52286 1-194, four phosphorylations (intact mass spectrometry); sites not given)
T1 construct: Cep3, budding yeast, full length; Ctf13, budding yeast, full length; Skp1, budding yeast, full length; Core complex as it stood in size-exclusion chromatography with Ndc10 or the Ndc10 NTD (tag cleaved); also called CBF3 core complex; coreWT; source: S. cerevisiae, co-expressed, purified (Strep-Trap, heparin, TEV, anion exchange, SEC); not shown: double-StrepTactin tag, C-terminal, cleaved; …
Test: SEC; Superose 6 in 10 mM HEPES, 300 mM NaCl, 1 mM DTT; core and Ndc10 separated on heparin and combined, tag cleaved; stoichiometry judged by band intensities on SDS-PAGE/Coomassie
Conditions: both partners purified

T1 sequence (P40969 whole entry, chain 1 of 3): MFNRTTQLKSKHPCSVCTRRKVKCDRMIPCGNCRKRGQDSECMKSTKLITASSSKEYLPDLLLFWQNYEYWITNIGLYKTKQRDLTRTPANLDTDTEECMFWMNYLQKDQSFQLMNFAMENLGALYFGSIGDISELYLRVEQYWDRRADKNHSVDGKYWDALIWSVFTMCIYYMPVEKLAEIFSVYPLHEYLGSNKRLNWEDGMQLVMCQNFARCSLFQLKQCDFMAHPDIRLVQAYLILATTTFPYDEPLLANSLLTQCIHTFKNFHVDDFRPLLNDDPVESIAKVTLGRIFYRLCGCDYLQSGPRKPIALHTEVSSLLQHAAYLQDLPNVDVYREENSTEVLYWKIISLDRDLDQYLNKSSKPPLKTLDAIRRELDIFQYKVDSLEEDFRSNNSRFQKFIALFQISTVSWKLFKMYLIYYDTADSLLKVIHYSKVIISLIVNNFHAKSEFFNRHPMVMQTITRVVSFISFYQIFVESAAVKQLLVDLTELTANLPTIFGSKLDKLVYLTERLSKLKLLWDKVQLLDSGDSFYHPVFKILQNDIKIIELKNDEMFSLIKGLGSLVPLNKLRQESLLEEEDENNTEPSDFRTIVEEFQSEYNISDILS
T1 sequence (P35203 whole entry, chain 2 of 3): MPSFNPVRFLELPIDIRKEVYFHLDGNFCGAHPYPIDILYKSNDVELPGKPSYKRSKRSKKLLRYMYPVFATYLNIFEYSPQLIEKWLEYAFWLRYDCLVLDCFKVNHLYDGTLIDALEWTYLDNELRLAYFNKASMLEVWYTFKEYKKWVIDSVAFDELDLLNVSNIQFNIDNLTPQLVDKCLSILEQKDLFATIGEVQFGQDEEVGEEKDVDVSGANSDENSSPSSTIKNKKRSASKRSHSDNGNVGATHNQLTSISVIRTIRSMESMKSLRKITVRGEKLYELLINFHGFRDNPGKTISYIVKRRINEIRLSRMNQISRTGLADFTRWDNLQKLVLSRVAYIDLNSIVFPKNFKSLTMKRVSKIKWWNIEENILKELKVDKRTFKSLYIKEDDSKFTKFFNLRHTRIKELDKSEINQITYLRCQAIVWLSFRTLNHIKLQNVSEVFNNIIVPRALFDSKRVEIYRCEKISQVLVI
T1 sequence (P52286 whole entry, chain 3 of 3): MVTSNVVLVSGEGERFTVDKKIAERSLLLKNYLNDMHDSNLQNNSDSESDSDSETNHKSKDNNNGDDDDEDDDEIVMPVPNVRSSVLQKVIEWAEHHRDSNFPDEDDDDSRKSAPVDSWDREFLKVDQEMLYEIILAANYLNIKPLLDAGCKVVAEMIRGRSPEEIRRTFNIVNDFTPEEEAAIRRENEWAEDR

stoichiometry N: 2
B1: Ndc10 (natural protein, S. cerevisiae, UniProt P32504 1-956, looked up)
chain: MRSSILFLLKLMKIMDVQQQQEAMSSEDRFQELVDSLKPRTAHQYKTYYTKYIQWCQLNQIIPTPEDNSVNSVPYKDLPISAELIHWFLLDTLITDDKPGEKREETEDLDEEEENSFKIATLKKIIGSLNFLSKLCKVHENPNANIDTKYLESVTKLHTHWIDSQKAITTNETNNTNTQVLCPPLLKVSLNLWNPETNHLSEKFFKTCSEKLRFLVDFQLRSYLNLSFEERSKIRFGSLKLGKRDRDAIIYHKVTHSAEKKDTPGHHQLLALLPQDCPFICPQTTLAAYLYLRFYGIPSVSKGDGFPNLNADENGSLLQDIPILRGKSLTTYPREETFSNYYTTVFRYCHLPYKRREYFNKCNLVYPTWDEDTFRTFFNEENHGNWLEQPEAFAFPDKIPFDFKKIMNFKSPYTSYSTNAKKDPFPPPKDLLVQIFPEIDEYKRHDYEGLSQNSRDFLDLMEVLRERFLSNLPWIYKFFPNHDIFQDPIFGNSDFQSYFNDKTIHSKGSPILSFDILPGFNKIYKNKTNFYSLLIERPSQLTFASSHNPDTHPTQKQESEGPLQMSQLDTTQLNELLKQQSFEYVQFQTLSNFQILLSVFNKIFEKLEMKKSSRGYILHQLNLFKITLDERIKKSKIDDADKFIRDNQPIKKEENIVNEDGPNTSRRTKRPKQIRLLSIADSSDESSTEDSNVFKKDGESIEDGAYGENEDENDSEMQEQLKSMINELINSKISTFLRDQMDQFELKINALLDKILEEKVTRIIEQKLGSHTGKFSTLKRPQLYMTEEHNVGFDMEVPKKLRTSGKYAETVKDNDDHQAMSTTASPSPEQDQEAKSYTDEQEFMLDKSIDSIEGIILEWFTPNAKYANQCVHSMNKSGNKSWRANCEALYKERKSIVEFYIYLVNHESLDRYKAVDICEKLRDQNEGSFSRLAKFLRKWRHDHQNSFDGLLVYLSN
notes: synthetic gene codon-optimised for S. cerevisiae; also called full-length Ndc10; source: S. cerevisiae, co-expressed with the other CBF3 subunits and Sgt1; in lysate (pull-down) and purified (heparin, anion exchange, SEC)
